What all share (assay): SPR
A general note: In SPR one partner is held on a chip, and binding of the other changes the refractive index at the surface.

For assay [1], the target named is CCR2 (wheat-germ proteoliposome) (human) (UniProt P41597).
In assay [2] the target is CXCR1 (wheat-germ proteoliposome) (human) (UniProt P25024).
The target in assay [3] is CXCR2 (wheat-germ proteoliposome) (human) (UniProt P25025).
For assay [4], the target named is C5aR (wheat-germ proteoliposome) (human) (UniProt P21730).

From PMC4228697 come the findings set out here.

UniProt P25025, sequence (P25025 whole entry): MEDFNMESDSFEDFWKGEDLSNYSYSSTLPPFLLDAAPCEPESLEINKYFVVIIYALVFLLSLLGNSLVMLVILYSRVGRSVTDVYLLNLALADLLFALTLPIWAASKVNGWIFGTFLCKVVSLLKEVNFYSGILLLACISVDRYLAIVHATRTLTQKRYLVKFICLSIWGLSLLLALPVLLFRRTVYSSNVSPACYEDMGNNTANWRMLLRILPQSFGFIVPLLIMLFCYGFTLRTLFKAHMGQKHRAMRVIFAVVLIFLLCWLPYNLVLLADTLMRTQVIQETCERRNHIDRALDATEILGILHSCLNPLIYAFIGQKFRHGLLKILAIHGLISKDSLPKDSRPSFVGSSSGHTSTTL
UniProt P25024, sequence (P25024 whole entry): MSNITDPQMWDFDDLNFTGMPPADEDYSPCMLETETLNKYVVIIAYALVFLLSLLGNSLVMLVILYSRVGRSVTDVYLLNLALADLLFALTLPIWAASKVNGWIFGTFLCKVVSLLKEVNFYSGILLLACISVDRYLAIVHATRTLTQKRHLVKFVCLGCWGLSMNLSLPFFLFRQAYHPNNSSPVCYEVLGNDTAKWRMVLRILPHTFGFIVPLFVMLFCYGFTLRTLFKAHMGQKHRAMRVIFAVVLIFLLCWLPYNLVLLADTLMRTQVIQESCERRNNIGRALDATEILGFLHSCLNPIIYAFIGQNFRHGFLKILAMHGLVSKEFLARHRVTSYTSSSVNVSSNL
UniProt P21730, sequence (P21730 whole entry): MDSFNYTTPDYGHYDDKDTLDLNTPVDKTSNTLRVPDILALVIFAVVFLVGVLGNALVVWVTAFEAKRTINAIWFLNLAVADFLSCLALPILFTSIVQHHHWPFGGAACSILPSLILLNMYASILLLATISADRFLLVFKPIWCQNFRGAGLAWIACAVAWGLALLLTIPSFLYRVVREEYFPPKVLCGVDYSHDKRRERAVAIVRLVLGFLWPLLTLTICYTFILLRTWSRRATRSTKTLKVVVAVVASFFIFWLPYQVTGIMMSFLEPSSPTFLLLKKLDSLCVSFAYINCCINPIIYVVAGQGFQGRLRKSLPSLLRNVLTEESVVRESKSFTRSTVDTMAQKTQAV

Broadly, the Kd is the equilibrium constant for the complex coming apart. A high value points to weaker binding. As for “MCP-1 (from UniProt P13500 24-99) (ligand)”, the Kd in assay [1] is 0.84 nM.

For “γ-Hemolysin component HlgA (from UniProt P0A074 30-309) (natural protein)”, the dissociation constant (Kd) in assay [1] is 3.51 nM; in assay [2] it was 5.69 nM; in assay [3], 27.2 nM.

In turn, “γ-Hemolysin component HlgC (from UniProt Q07227 30-315) (natural protein)” yielded a Kd in assay [4] of 5.64 nM.
